Source: US20250236680A1 (XI AN ORIMAB BIOTECHNOLOGY, published 2025)

Legend:
[1] = molecular target: T1, biotinylated PSMA extracellular domain recombinant protein (Acrobiosystems) (Homo sapiens (Human), UniProt Q04609 44-750, biotinylated); experiment: capture ELISA, curve fit in GraphPad Prism
T1 construct: Bought reagent
Method: (§1) Goat anti-human-IgG1 (Fc specific) (Jackson ImmunoResearch Laboratories, Inc, Pennsylvania, USA) was coated on wells of ELISA plate in 100 μl PBS at the concentration of 3 μg/ml, 4° C. overnight. The wells were washed twice with 200 μl PBST (PBS, pH7.4, containing 0.05% Tween 20) and then blocked with 400 μl PBS™ (PBST containing 5% dry milk) for 2 h at room temperature. Three-fold serially diluted PSMAb and PSMAbLm starting from 6 nM down to 0.1 pM in 50 μl PBS™ were then incubated with the wells respectively for 1 h at room temperature. After 6 washes with PBST, the wells were incubated with 50 μl biotinylated PSMA extracellular domain recombinant protein (Acrobiosystems, Delaware, USA) at the concentration of 0.5 μg/ml in PBS™ for 1 h at room temperature. After incubation, the wells were washed 6 times using PBST and incubated with 50 μl 1:1000 diluted streptavidin-HRP (BD bioscience, California, USA) in PBS™. After final 6 washes with PBST, colorimetric signals were developed by incubation with 70 μl 3, 3′, 5, 5′-tetramethylbenzidine (TMB, eBioscience, CA, USA) and for 20 min at room temperature, then stopped by incubation with 70 μl 1 M H₂SO₄. The absorbance was measured at 450 nm using a microplate reader (VWR, PA, USA). The binding curves were analyzed using GraphPad Prism 5.0 software.
(§2) CDR3 regions of both heavy and light chains are pivotal for antigen binding. […]

PSMA on PSMA+CHO cells = PSMA on PSMA+CHO cells (UniProt Q04609 1-750, limits assumed); experiment: cell-based or functional assay
Sequence of PSMA on PSMA+CHO cells (Q04609 whole entry, the tested form may be a part): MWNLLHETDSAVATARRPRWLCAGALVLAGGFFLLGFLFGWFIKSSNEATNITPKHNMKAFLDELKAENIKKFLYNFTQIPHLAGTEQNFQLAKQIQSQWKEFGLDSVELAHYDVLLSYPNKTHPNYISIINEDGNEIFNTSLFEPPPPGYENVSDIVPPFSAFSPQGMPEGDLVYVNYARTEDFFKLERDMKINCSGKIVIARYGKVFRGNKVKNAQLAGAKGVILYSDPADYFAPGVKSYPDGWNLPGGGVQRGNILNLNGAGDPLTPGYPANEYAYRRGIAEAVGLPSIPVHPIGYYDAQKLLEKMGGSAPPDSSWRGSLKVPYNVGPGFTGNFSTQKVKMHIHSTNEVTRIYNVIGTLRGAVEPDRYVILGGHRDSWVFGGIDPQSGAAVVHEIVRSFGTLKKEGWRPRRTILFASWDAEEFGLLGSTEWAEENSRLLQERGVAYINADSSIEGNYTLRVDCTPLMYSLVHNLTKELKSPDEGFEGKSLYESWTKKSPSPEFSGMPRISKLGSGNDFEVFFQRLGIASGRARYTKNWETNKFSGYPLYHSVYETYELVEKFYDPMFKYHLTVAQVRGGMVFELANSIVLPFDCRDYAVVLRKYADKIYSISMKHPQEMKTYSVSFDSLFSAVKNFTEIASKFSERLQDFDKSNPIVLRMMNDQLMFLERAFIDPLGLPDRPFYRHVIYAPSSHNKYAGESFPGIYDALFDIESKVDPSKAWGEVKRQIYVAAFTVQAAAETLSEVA

[2] = molecular target: T1, biotinylated PSMA extracellular domain …; experiment: capture ELISA
Method: as §1, §2

T1 sequence (Q04609 44-750): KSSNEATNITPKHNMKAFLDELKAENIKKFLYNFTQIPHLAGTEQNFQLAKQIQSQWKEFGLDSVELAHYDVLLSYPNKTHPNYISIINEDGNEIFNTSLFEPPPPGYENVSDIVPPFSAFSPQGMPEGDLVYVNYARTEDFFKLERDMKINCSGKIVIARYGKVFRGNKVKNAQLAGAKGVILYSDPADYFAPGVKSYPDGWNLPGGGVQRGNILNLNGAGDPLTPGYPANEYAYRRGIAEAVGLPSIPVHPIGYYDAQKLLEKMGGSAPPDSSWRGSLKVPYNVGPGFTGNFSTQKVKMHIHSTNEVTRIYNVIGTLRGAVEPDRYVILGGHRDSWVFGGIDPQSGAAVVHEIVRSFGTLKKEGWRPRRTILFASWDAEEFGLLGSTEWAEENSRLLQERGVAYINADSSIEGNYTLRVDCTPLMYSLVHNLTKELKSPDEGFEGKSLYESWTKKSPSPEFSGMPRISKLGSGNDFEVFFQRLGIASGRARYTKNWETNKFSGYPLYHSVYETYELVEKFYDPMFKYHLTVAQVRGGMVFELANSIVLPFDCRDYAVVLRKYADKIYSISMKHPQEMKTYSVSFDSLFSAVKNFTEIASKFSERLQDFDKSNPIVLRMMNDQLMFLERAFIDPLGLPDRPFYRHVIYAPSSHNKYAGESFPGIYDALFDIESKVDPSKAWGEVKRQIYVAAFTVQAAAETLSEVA

| Binder | Kd [1] | Luciferase signal increase fold (ADCC, CD16-Jurkat reporter cells) at 0 pg/ml antibody (PSMA on PSMA+CHO cells) | Luciferase signal increase fold (ADCC, CD16-Jurkat reporter cells) at 2.286 pg/ml antibody (PSMA on PSMA+CHO cells) | Luciferase signal increase fold (ADCC, CD16-Jurkat reporter cells) at 6.859 pg/ml antibody (PSMA on PSMA+CHO cells) | Luciferase signal increase fold (ADCC, CD16-Jurkat reporter cells) at 20.576 pg/ml antibody (PSMA on PSMA+CHO cells) | fold higher affinity than PSMAb [2] |
| --- | --- | --- | --- | --- | --- | --- |
| PSMAb (parent anti-PSMA full antibody) (antibody, human IgG1, lambda, V domains shown, IgG1 with lambda constant region; also called PSMAb-WT; PMSAb-WT) VH: EVQLVESGGALAKPGGSLRLSCAASGFTLSGYAMHWVRQAPGKGLEWVAVISYDGSNKYYADSVKGRFTVSRDNSKNTLFLQMNSLRPEDTAVYYCAKGLTWGLGDNDALDIWGPGTTVTVSS VL: QSVLTQPPSVSGAPGQSVIISCTGSSSNIGAGSHVHWYQQVPGTAPKLLIYENTNRPSGVPDRFSGSKSGTSGSLAITGLQPEDEADYYCATWDDSLNGVIFGGGTKATVLG | 0.109 nM | 1.04 fold | 18.4 fold | 30 fold | 43.1 fold |  |
| PSMAb-AF (afucosylated PSMAb) (antibody, human IgG1, lambda, V domains shown, afucosylated (expressed in Fut8-/- CHO-K1)) VH: EVQLVESGGALAKPGGSLRLSCAASGFTLSGYAMHWVRQAPGKGLEWVAVISYDGSNKYYADSVKGRFTVSRDNSKNTLFLQMNSLRPEDTAVYYCAKGLTWGLGDNDALDIWGPGTTVTVSS VL: QSVLTQPPSVSGAPGQSVIISCTGSSSNIGAGSHVHWYQQVPGTAPKLLIYENTNRPSGVPDRFSGSKSGTSGSLAITGLQPEDEADYYCATWDDSLNGVIFGGGTKATVLG |  | 0.859 fold | 33 fold | 52.9 fold | 55.5 fold |  |
| PSMAbLm-AF (afucosylated PSMAb with N=>S mutation in light chain CDR3 region) (antibody, human IgG1, lambda, V domains shown, afucosylated (expressed in Fut8-/- CHO-K1)) VH: EVQLVESGGALAKPGGSLRLSCAASGFTLSGYAMHWVRQAPGKGLEWVAVISYDGSNKYYADSVKGRFTVSRDNSKNTLFLQMNSLRPEDTAVYYCAKGLTWGLGDNDALDIWGPGTTVTVSS VL: QSVLTQPPSVSGAPGQSVIISCTGSSSNIGAGSHVHWYQQVPGTAPKLLIYENTNRPSGVPDRFSGSKSGTSGSLAITGLQPEDEADYYCATWDDSLSGVIFGGGTKATVLG |  | 1.1 fold | 38.9 fold | 56.6 fold | 54.7 fold |  |
| PSMAbLm (PSMAb with N to S mutation in light chain CDR3) (antibody, human IgG1, lambda, V domains shown, also called PMSAbLm; full antibody from Mut-gy1-2 scFv) VH: EVQLVESGGALAKPGGSLRLSCAASGFTLSGYAMHWVRQAPGKGLEWVAVISYDGSNKYYADSVKGRFTVSRDNSKNTLFLQMNSLRPEDTAVYYCAKGLTWGLGDNDALDIWGPGTTVTVSS VL: QSVLTQPPSVSGAPGQSVIISCTGSSSNIGAGSHVHWYQQVPGTAPKLLIYENTNRPSGVPDRFSGSKSGTSGSLAITGLQPEDEADYYCATWDDSLSGVIFGGGTKATVLG | 0.0479 nM |  |  |  |  | ~2.3 fold |
